The record followed here is patent publication US20240409645A1 (DUALYX, published 2024).

The target in test [1] is T1, human common cytokine receptor γ-chain (IL-2Rγ) (human, UniProt P31785 23-262, limits assumed).
T1 construct: Recombinant human IL-2Rγ protein, coated (ELISA) or amine-coupled to a CM5 chip (SPR); also called hu IL-2R; CD132
T1 sequence: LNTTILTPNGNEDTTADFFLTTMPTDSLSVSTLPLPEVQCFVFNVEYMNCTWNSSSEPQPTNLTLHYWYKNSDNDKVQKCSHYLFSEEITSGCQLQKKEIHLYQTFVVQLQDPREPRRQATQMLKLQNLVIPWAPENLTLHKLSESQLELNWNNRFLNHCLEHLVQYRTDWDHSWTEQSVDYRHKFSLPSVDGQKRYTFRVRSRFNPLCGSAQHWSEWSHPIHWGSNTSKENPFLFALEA
In words: P.E. off-rate SPR. The method, then:
(§1) SPR was performed to determine dissociation rates using Biacore 3000 instrument (GE Healthcare). Briefly, human and mouse IL-2R proteins were immobilized on carboxylmethyl dextran sensor chip (CM5) at approximately 2500 RUs using amine coupling in acetate buffer (GE Healthcare). The VHH-containing P.E. were loaded with a flow rate of 30 uL/min and the off-rates were measured over a 120s period.

In test [2] the target is T2, mouse common cytokine receptor γ-chain (IL-2Rγ) (mouse, UniProt P34902 23-263, limits assumed).
T2 construct: Recombinant mouse IL-2Rγ protein; also called mo IL-2R; mouse IL-2R gamma
T2 sequence (looked up): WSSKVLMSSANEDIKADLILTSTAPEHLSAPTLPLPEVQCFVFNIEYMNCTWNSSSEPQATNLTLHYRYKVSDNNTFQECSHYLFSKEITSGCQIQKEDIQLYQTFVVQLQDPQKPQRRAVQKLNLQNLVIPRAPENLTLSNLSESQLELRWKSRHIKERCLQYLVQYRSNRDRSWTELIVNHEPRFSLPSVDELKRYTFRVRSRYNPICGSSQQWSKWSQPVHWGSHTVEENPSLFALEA
In words: P.E. off-rate SPR. As for the experimental part: as §1

For test [3], the target named is T1, human common cytokine receptor γ-chain …. In words: P.E. binding ELISA. As for the experimental part:
(§2) In a binding ELISA, human or mouse IL-2Rα, IL-2Rβ and IL-2Rγ proteins were coated directly on maxisorp microtiter plates overnight at 4° C. Free binding sites were blocked using 4% Marvel in PBS for 1 hour. Next, 1:5 dilution of P.E. in 1% Marvel/PBS were added to wells and incubated for 1 hour. […] Binding specificity was determined based on O.D. at 450 nm values compared to negative controls.

The target in test [4] is T2, mouse common cytokine receptor γ-chain …. In words: P.E. binding ELISA. As for the experimental part:
as §2

B1: FJ1427_P035MP07F01 (VHH)
VHH: QVQLVESGGGLVQAGGSLRLSCAASGRTLSRYAMGWFRQAPGKEREFVTANSWGGDTYYADSVQGRFTFSRDNAKNTVYLQMNSLQPEDTAVYYCAAAPTSFATTAYSSSNSYAYWGQGTQVTVSS
notes: tested as periplasmic extract; also called Clone nr
As for B1, the koff in test [1] was found to be 0.00297 s⁻¹; in test [2] it was 0.0855 s⁻¹. Moreover, the “PE binding ELISA OD” value in test [3] came to 0.556 OD450 nm; in test [4], 0.047 OD450 nm.

B2: FJ1427_P035MP07B11 (VHH)
VHH: QVQLVESGGGLVQAGGSLRLSCAASGRALSRLAMGWFRQAPGKEREFVVASSWGDDTFYADSVEGRFTFSRDNAKSTVYLQMNSLQPGDTAVYYCAAAPTSFATTAYSSSNSYAYWGQGTQVTVPS
notes: as for B1
B2: the koff in test [1] stood at 0.00214 s⁻¹; in test [2], 0.0114 s⁻¹. Besides, the “PE binding ELISA OD” value in test [3] was found to be 1.25 OD450 nm; in test [4], 0.246 OD450 nm.

B3: FJ1427_P035MP07B08 (VHH)
VHH: EVQLVESGGGSVQPGGSLRLSCAASGRTLSRYAMGWFRQAPGKEREFVTANSWGGDTYYADSVQGRFTFSRDNAKNTVYLQMNSLQPEDTAVYYCAAAPTSFATTAYSSSNSYAYWGQGTQVTVSS
notes: tested as periplasmic extract; also called Clone nr; 634
As for B3, the koff in test [1] turned out to be 0.00326 s⁻¹; in test [2] it was 0.144 s⁻¹. Also, the “PE binding ELISA OD” value worked out at 0.425 OD450 nm in test [3] and 0.044 OD450 nm in test [4].

B4: FJ1427_P035MP07A02 (VHH)
VHH: QVQLVESGGGLVQAGGSLRLSCAASGRALSRLAMGWFRQAPGKEREFVVASSWGDDTFYADSVKGRFTFSRDNAKNTVYLQMNSLQPGDTAVYYCAAAPTSFATTAYSSSNSYAYWGQGTQVTASS
notes: as for B1
B4: the results for the koff in test [1] and in test [2] were 0.00176 s⁻¹ and 0.0116 s⁻¹, respectively. Besides, the “PE binding ELISA OD” value was 0.829 OD450 nm in test [3] and 0.063 OD450 nm in test [4].

B5: FJ1427_P035MP07C05 (VHH)
VHH: EVQLVESGGGLVQPGGSLRLSCAASGRALSRLAMGWFRQAPGKEREFVVASSWGDDTFYADSVKGRFTFSRDNAKNTVYLQMNSLQPGDTAVYYCAAAPTSFATTAYSSSNSYAYWGQGTQVTVSS
notes: tested as periplasmic extract; also called Clone nr; 611
For B5, the off-rate constant (koff) turned out to be 0.00182 s⁻¹ in test [1] and 0.0128 s⁻¹ in test [2]. Also, the “PE binding ELISA OD” value in test [3] turned out to be 0.479 OD450 nm; in test [4], 0.047 OD450 nm.

B6: FJ1427_P035MP07B10 (VHH)
VHH: QVQLVESGGGLVQAGGSLRLSCAASGRTLSRYAMGWFRQAPGKEREFVAADSWGGDTFYADSVEGRFTFSRDNAKNAAYLQMNSLQPEDTATYYCAGAPTSFATTAYSSSNSYRYWGQGTQVTVSS
notes: tested as periplasmic extract; also called Clone nr; 650
For the molecule B6, the dissociation rate constant (koff) in test [1] came to 0.00175 s⁻¹; in test [2] it was 0.0501 s⁻¹. The results for the “PE binding ELISA OD” value in test [3] and in test [4] were 0.716 OD450 nm and 0.059 OD450 nm, respectively.

B7: FJ1427_P035MP07B09 (VHH)
VHH: QVQLVESGGGLVQAGGSLRLSCAASGRALSRLAMGWFRQAPGKEREFVVASSWGDDTFYADSVKGRFTFSRDNAKNTVYLQMNSLQPGDTAVYYCAAAPTSFATTAYSSSNSYAYWGQGTQVTVSS
notes: as for B1
As to B7, the figures for the koff in test [1] and in test [2] were 0.00168 s⁻¹ and 0.0127 s⁻¹, respectively. Also, the entries for the “PE binding ELISA OD” value in test [3] and in test [4] were 1.27 OD450 nm and 0.082 OD450 nm, respectively.

B8: FJ1427_P035MP07B06 (VHH)
VHH: EVQLVESGGGLVQAGGSLRLSCAASGRTLSRYAMGWFRQAPGKEREFVTANSWGGDTYYADSVQGRFTFSRDNAKNTVYLQMNSLQPEDTAVYYCAAAPTSFATTAYSSSNSYAYWGQGTQVTVSS
notes: tested as periplasmic extract; also called Clone nr; 618
B8: the figures for the off-rate constant (koff) in test [1] and in test [2] were 0.00322 s⁻¹ and 0.112 s⁻¹, respectively. In addition, the “PE binding ELISA OD” value stood at 0.902 OD450 nm in test [3] and 0.045 OD450 nm in test [4].

B9: FJ1427_P035MP07C01 (VHH)
VHH: QVQLVESGGGLVQAGDSLRLSCVASGRTLSRCAMGWFRKAPGKEREYVAISSWGGDTFYEDSVEGRFTFSRDNAKNTVYLQMNSLRPEDTAVYYCAAAPTSFATTAYSSSNSYAYWGQGTQVTVSS
notes: as for B1
Consider B9, for which the off-rate constant (koff) in test [1] is 0.00113 s⁻¹; in test [2] it was 0.00694 s⁻¹. The “PE binding ELISA OD” value was 0.945 OD450 nm in test [3] and 0.923 OD450 nm in test [4].

B10: FJ1427_P035MP07B02 (VHH)
VHH: EVQLVESGGGLVQAGGSLRLSCAASGRALSRLAMGWFRQAPGKEREFVVASSWGDDTFYADSVKGRFTFSRDNAKNTVYLQMNSLQPGDTAVYYCAAAPTSFATTAYSSSNSYAYWGQGTQVTVSS
notes: as for B1
For B10, the figures for the koff in test [1] and in test [2] were 0.00232 s⁻¹ and 0.0151 s⁻¹, respectively. Further, the “PE binding ELISA OD” value in test [3] was 1.32 OD450 nm; in test [4] it was 0.061 OD450 nm.

B11: FJ1427_P035MP07A06 (VHH)
VHH: QVQLVESGGGLVQPGGSLRLSCAASGRTLSRYAMGWFRQAPGKEREFVTANSWGGDTYYADSVQGRFTFSRDNAKNTVYLQMNSLQPEDTAVYYCAAAPTSFATTAYSSSNSYAYWGQGTQVTVSS
notes: as for B1
On to B11, for which the figures for the koff in test [1] and in test [2] were 0.00273 s⁻¹ and 0.109 s⁻¹, respectively. For the same molecule, the “PE binding ELISA OD” value in test [3] was determined as 1.12 OD450 nm; in test [4], 0.047 OD450 nm.

B12: FJ1427_P035MP07A05 (VHH)
VHH: EVQLVESGGGLVQAGGSLRLSCAASGRTLSRYAMGWFRQAPGKEREFVTANSWGGDTYYADSVQGRFTFSRDNAKNTVYLQMNSLQPEDTAVYYCAAAPTSFATTAYSSSNSYAYWGQGTQVTVSS
notes: as for B1
Take B12: the koff turned out to be 0.00323 s⁻¹ in test [1] and 0.127 s⁻¹ in test [2]. The “PE binding ELISA OD” value in test [3] was 0.973 OD450 nm; in test [4] it was 0.046 OD450 nm.

B13: FJ1427_P035MP07A03 (VHH)
VHH: EVQLVESGGGLVQAGGSLRLSCAASGRTLSRYAMGWFRQAPGKEREYVAIDSWGGDTFYADSVEGRFTFSRDNAKNEVYLQMNSLQPEDTAVYYCAGAPTSFATTAYSSSNSYRYWGQGTQVTVSS
notes: as for B1
In the case of B13, the koff in test [1] is 0.00174 s⁻¹; in test [2], 0.00795 s⁻¹. Further, the “PE binding ELISA OD” value in test [3] was determined as 1.69 OD450 nm; in test [4], 0.869 OD450 nm.

B14: FJ1427_P035MP07A09 (VHH)
VHH: QVQLVESGGGLVQAGGSLRLSCAASGRALSRLAMGWFRQAPGKEREFVVASSWGDDTFYADSVKGRFTFSRDNAKNTVYLQMNSLQPGDTAVYYCAAAPTSFATTAYSSSNSYAYWGQGTQVTVSS
notes: as for B1
Consider B14, for which the koff in test [1] came to 0.00161 s⁻¹; in test [2] it was 0.0119 s⁻¹. For the same molecule, the “PE binding ELISA OD” value in test [3] is 0.518 OD450 nm; in test [4], 0.055 OD450 nm.

B15: FJ1427_P035MP07C03 (VHH)
VHH: EVQLVESGGGLVQAGGSLRLSCAASGRTLSRYAMGWFRQAPGKEREFVTANSWGGDTYYADSVQGRFTFSRDNAKNTVYLQMNSLQPEDTAVYYCAAAPTSFATTAYSSSNSYAYWGQGTQVTVSS
notes: as for B1
Regarding B15, the off-rate constant (koff) in test [1] came to 0.00353 s⁻¹; in test [2], 0.114 s⁻¹. Moreover, the results for the “PE binding ELISA OD” value in test [3] and in test [4] were 0.982 OD450 nm and 0.046 OD450 nm, respectively.

B16: FJ1427_P035MP07C06 (VHH)
VHH: QVQLVESGGGLVQAGGSLRLSCAASGRTLSRYAMGWFRQAPGKEREFVTANSWGGDTYYADSVQGRFTFSRDNAENTVYLQMNSLQPEDTAVYYCAAAPTSFATTAYSSSNSYAYWGQGTQVTVSS
notes: as for B1
B16: the results for the koff in test [1] and in test [2] were 0.00279 s⁻¹ and 0.111 s⁻¹, respectively. Further, the “PE binding ELISA OD” value was 0.319 OD450 nm in test [3] and 0.045 OD450 nm in test [4].

B17: FJ1427_P035MP07B03 (VHH)
VHH: EVQLVESGGGLVQAGGSLRLSCAASGRALSRLAMGWFRQAPGKEREFVVASSWGDDTFYADSVKGRFTFSRDNAKNTVYLQMNSLQPGDTAVYYCAAAPTSFATTAYSSSNSYAYWGQGTQVTVSS
notes: as for B1
For the molecule B17, the koff in test [1] worked out at 0.00278 s⁻¹; in test [2], 0.0132 s⁻¹. Also, the “PE binding ELISA OD” value in test [3] was determined as 1.55 OD450 nm; in test [4], 0.058 OD450 nm.

B18: FJ1427_P035MP07B04 (VHH)
VHH: EVQLVESGGGLVQAGGSLRLSCAASGRTLSRYAMGWFRQAPGKEREFVTANSWGGDTYYADSVQGRFTFSRDNAKNTVYLQMNSLQPEDTAVYYCAAAPTSFATTAYSSSNSYAYWGQGTQVTVSS
notes: tested as periplasmic extract; also called Clone nr; 602
As to B18, the koff was found to be 0.00277 s⁻¹ in test [1] and 0.114 s⁻¹ in test [2]. The “PE binding ELISA OD” value in test [3] was 0.97 OD450 nm; in test [4] it was 0.047 OD450 nm.

B19: FJ1427_P035MP07C09 (VHH)
VHH: QVQLVESGGGLVQAGGSLRLSCAASGRTLSRYAMGWFRQAPGKEREYVAIDSWGGDTFYADSVEGRFTFSRDNAKNEVYLQMNSLQPEDTAVYYCAGAPTSFATTAYSSSNSYRYWGQGTQVTVSS
notes: tested as periplasmic extract; also called Clone nr; 643
Regarding B19, the off-rate constant (koff) was found to be 0.00137 s⁻¹ in test [1] and 0.00703 s⁻¹ in test [2]. Besides, the “PE binding ELISA OD” value amounted to 0.723 OD450 nm in test [3] and 0.755 OD450 nm in test [4].
